These results are taken from patent US20070027096, “Aptamers to human epidermal growth factor receptor-3” (published 2007).

In data set [1] the target is T1, HER3 extracellular domain (HER3ECD, ErbB3) (Homo sapiens, UniProt P21860 SEQ:20-643). The data set is described as follows: EMSA; 8 pmol RNA with 24 pmol HER3ECD, 37 C. The conditions noted are these: tags: C-terminal V5 and hexa-His (pMT/BiP/V5-His A, S2 insect cells); chain copies: oligomeric (self-associated; stated); label: internal 32P. As for the experimental part: (§1) For screening purposes, 8 pmol of internally labeled aptamer were incubated in binding buffer with 24 pmol of HER3ECD at 37° C. for 10 minutes and analyzed on 6% non-denaturing polyacrylamide gels as described above. Aptamers displaying substantial shift were reverse transcribed and sequenced. For subsequent analysis of A30 binding, internally labeled and unlabeled A30 was denatured at 90° C. for 2 min in PBS and cooled on ice for 1 min. A30 was incubated with HER3ECD in binding buffer for 10 min at 37° C. at the indicated concentrations and in the presence 0.5 μM tRNA and was analyzed by electrophoresis on a non-denaturing 6% polyacrylamide gel at 4° C. Were indicated, HER3ECD and heregulin were premixed at room temperature three minutes before the addition of A30.
(A gel shift assay detects complexes by their altered migration in electrophoresis.)

Data set [2] has as its target T1, HER3 extracellular domain (HER3ECD, …). The data set is described as follows: EMSA; apparent Kd by displacement with unlabeled A30; no heregulin; 10 mM HEPES pH 7.4, 100 mM NaCl, 2.5 mM MgCl2, 37 C, 0.5 uM tRNA. The settings on record: tags: C-terminal V5 and hexa-His (pMT/BiP/V5-His A, S2 insect cells); chain copies: oligomeric (self-associated; stated); label: internal 32P; triple hairpin loop. As for the experimental part: as §1
(§2) Several lines of evidence provide evidence that the interaction of A30 with HER3ECD involves at least two different modes of binding. […] Addition of heregulin has two consequences. […] With respect to the heregulin-induced increase and dual mode of binding, we observed a similar, although less pronounced, effect for A30 binding to MCF7 cells (FIG. 4B+C). MCF7 cells endogenously express both HER3 and HER2. […] The addition of heregulin results in an increase in the number of A30 binding sites FIG. 4B), but this increase is relatively small (25% total 17% for low affinity and 8% for high affinity sites).

In data set [3] the target is T2, HER3 on MCF7 cells (with endogenous HER2) (Homo sapiens, UniProt P21860 SEQ:20-1342). Put plainly: competition; low affinity site on MCF7 cells, 4 C, PBS, +/-2.2, Scatchard. The settings on record: label: internal 32P; triple hairpin loop. The protocol: (§3) MCF7 cells (ATCC) were grown to 70% confluency on 6 well plates and washed with ice cold PBS. Following the washes, cells were incubated at 4° C. with 1 mL ice cold PBS or PBS containing 200 nM heregulin. After four hours an equal volume of ice cold PBS containing two microliter internally ³²P labeled A30 aptamer (80,000 cpm/μL), 20 μL RNAse inhibitor (20 units/μL), and varying concentrations of unlabeled aptamer were added. After four hours incubation, the supernatant was removed, and cells were washed three times with ice cold PBS. Displaced and bound radiolabeled aptamer was measured in duplicate.
as §2

A further data set concerns the target T3, heregulin (Homo sapiens).
T3 chain: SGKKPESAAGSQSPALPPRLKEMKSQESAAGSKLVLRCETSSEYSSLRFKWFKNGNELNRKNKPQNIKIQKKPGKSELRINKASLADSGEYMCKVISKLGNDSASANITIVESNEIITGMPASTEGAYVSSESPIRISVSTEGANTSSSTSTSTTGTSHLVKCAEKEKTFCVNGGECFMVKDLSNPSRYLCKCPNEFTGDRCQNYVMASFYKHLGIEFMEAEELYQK
The data set is described as follows: EMSA; 0.5 uM protein. The settings on record: label: internal 32P; triple hairpin loop.

Data set [4] has as its target HER2 extracellular domain (HER2-ECD) (Homo sapiens, UniProt P04626 SEQ:23-652). Put plainly: EMSA; 0.5 uM protein. The conditions noted are these: label: internal 32P; triple hairpin loop.
Data set [5] has as its target T2, HER3 on MCF7 cells (with endogenous …). Put plainly: competition; high affinity site on MCF7 cells, 4 C, PBS, +/-0.2, Scatchard. The settings on record: label: internal 32P; triple hairpin loop. As for the experimental part:
as §3, §2

The target is the same in data set [6]. Put plainly: cell_activity; half-maximal inhibition of heregulin-specific MCF7 growth; maximum 50% inhibition. The conditions noted are these: label: internal 32P; triple hairpin loop. The protocol: MCF7 cells were seeded in 96 well plates (2500 cells/well) in RPMI, 2% fetal bovine serum, 2 units of RNAse inhibitor/ml and varying concentrations of heregulin and aptamer. After two days, cell growth was determined using an MTT/tetrazolium based assay (Promega). Cell growth was equated with the absorbance of converted and solubilized dye at 560 nm. All samples were determined in triplicate.
Next, we evaluated the ability of A30 to interfere with receptor activation by wild type heregulin. […] In contrast, the activation of HER2 by EGF, which proceeds through hetetodimers of EGFR and HER2, is not inhibited by A30 (FIG. 7b). The low intensity of tyrosine phosphorylation of HER2 after stimulation by EGF is a reflection of the lower levels of EGFR (5000/cell) compared to HER2 (15,000) and HER3 (25,000) (see, e.g. Aguilar et al. (1999) Oncogene 18, 6050-62) and the fact that EGFR signaling proceeds only in part through heterodimers with HER2. To evaluate if the inhibition of tyrosine phosphorylation is reflected in a reduction in heregulin-specific growth stimulation, we incubated MCF7 cells in the presence of different concentrations of A30 and heregulin for two days (FIG. 8). […] Half-maximal inhibition occurs at around 1 nM A30. The addition of A30 alone has little effect on the growth of MCF7 cells.

Data set [7] addresses T1, HER3 extracellular domain (HER3ECD, …). Put plainly: EMSA; 8 pmol RNA with 24 pmol HER3ECD, 37 C; A18 and A30 do not displace each other. The settings on record: tags: C-terminal V5 and hexa-His (pMT/BiP/V5-His A, S2 insect cells); chain copies: oligomeric (self-associated; stated); label: internal 32P. The protocol: as §1

T1 sequence (P21860 20-643 E560G): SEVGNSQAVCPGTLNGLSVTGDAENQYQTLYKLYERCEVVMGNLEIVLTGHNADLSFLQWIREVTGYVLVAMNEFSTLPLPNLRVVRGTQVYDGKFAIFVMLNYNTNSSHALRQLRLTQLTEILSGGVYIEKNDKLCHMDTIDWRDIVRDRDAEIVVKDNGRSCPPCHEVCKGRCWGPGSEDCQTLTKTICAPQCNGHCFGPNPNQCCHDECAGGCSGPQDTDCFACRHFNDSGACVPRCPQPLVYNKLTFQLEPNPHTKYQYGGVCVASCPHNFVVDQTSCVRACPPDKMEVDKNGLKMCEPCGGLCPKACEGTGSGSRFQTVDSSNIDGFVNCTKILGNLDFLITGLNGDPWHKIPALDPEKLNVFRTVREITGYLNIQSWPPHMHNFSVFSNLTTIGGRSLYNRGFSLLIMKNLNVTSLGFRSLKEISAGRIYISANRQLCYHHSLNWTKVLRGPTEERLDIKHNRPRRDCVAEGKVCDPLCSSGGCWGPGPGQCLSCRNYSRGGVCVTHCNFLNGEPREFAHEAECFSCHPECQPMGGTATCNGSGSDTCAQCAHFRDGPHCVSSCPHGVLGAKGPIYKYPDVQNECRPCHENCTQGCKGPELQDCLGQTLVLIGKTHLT
T2 sequence (P21860 20-1342 E560G/E1064G): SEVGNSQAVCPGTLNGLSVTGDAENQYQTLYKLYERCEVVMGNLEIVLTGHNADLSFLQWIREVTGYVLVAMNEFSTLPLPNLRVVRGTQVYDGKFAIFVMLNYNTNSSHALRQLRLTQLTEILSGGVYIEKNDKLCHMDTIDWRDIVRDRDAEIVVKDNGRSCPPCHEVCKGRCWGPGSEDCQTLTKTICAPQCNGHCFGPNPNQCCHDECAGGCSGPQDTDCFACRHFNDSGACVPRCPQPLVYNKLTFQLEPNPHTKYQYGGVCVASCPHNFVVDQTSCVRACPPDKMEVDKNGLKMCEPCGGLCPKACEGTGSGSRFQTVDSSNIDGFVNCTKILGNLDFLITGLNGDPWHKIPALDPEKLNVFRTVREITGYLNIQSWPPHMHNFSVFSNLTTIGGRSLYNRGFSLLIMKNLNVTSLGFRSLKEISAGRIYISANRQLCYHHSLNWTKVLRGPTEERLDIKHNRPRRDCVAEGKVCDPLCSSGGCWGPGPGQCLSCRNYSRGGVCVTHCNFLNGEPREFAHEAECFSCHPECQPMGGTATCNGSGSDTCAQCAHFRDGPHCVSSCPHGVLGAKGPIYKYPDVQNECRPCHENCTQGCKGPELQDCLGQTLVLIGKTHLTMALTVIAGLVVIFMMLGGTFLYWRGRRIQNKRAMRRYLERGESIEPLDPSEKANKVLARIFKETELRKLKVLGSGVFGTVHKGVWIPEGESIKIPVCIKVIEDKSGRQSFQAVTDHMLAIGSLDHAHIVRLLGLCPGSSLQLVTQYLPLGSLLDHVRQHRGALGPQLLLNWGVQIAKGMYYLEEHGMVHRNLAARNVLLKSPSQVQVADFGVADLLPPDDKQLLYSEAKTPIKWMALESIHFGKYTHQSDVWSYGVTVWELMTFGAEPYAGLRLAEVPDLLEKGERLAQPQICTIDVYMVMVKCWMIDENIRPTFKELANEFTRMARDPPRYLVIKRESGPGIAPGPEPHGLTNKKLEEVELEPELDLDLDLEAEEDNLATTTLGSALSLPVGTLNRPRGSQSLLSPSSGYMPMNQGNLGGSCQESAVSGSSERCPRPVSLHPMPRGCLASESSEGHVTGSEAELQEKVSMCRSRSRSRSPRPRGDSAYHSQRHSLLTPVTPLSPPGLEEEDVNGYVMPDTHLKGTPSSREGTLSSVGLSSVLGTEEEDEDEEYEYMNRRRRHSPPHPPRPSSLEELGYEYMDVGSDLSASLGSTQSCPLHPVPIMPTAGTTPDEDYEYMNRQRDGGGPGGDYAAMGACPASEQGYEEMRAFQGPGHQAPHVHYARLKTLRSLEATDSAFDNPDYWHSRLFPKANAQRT

B1: A19 (ssRNA)
RNA: GGGAAUUCCGCGUGUGCAGAUCAGGACAGAGCGCACAGGUGCCAUCCUGGUCUAACGCCCUCGAUGGUCCGUUCGGGAUCCUC
Take B1: the binding result in data set [1] is listed as “binds”.

B2: A30 (ssRNA)
RNA: GGGAAUUCCGCGUGUGCCAGCGAAAGUUGCGUAUGGGUCACAUCGCAGGCACAUGUCAUCUGGGCGGUCCGUUCGGGAUCCUC
The IC50 is the concentration that gives 50% inhibition. Read a high IC50 as weaker potency. As to B2, the figures for the Kd in data set [2], in data set [3] and in data set [5] were 45 nM, 21 nM and 3.3 nM, respectively. The binding result (with heregulin; in data set [4]) was “no binding” in each case. In data set [6], the IC50 was approximately 1 nM.

B3: A23 (ssRNA)
RNA: GGGAAUUCCGCGUGUGCGAGGGGCGAGGACGCCGAGUAUAGCCCCUAGAGGUGGAUGUUUCACGGUGUCCGUUCGGGAUCCUC
For the molecule B3, the binding result in data set [1] was “binds”.

B4: A37 (ssRNA)
RNA: GGGAAUUCCGCGUGUGCUUGAGAGGUCGUGCCAACUCUCAAGGUUGUCUUUGCUCUCCGCUCUGUGGUCCGUUCGGGAUCCUC
As to B4, the binding result in data set [1] was “binds”.

B5: A6 (ssRNA)
RNA: GGGAAUUCCGCGUGUGCAGAACAAUCGCAUAGGCCGCAAGGUUAGUUUCGUUGUCCGCCCGGUGCAGUCCGUUCGGGAUCCUC
Take B5: the binding result in data set [1] was “binds”.

B6: A18 (ssRNA)
RNA: GGGAAUUCCGCGUGUGCACGAGUAUAGCCCACAUGGCACGACAGGGACGUUUCAUGUGCACAGUUGGUCCGUUCGGGAUCCUC
On to B6, for which the binding result in data set [7] is “binds”.
